US11957762B2, “Immune tolerant and non-immune tolerant elastin-like recombinant peptides and methods of use” (University of Utah Research Foundation, priority 2015, dated 2024)

How the values were obtained:
B3Z cells = assay: B3Z CD8+ T cell hybridoma activation assay; format: cell-based; details: for activation of B3Z cells: DC2.4 cells pre-incubated with antigen
Method: B3Z CD8+ T cell hybridoma activation assay. B3Z cells (a gift from N. Shastri) are a CD8+ T-cell hybridoma engineered to secrete β-galactosidase when their T-cell receptors are engaged with an […]:H2K^b complex.^(33) To do this assay, 1×10^5 DC2.4 cells/well were set in 96-well plates. OVA, […] peptide (SEQ ID NO: 22), and iTEP-pOVA NP (SEQ ID NO: 56) at indicated concentrations were loaded into the cell culture for 16 hours and then washed away. 1×10^5 B3Z cells/well were added to the DC2.4 cell culture and co-cultured with DC2.4 cells for 24 hours. The cells were washed with PBS before 100 μL of lysis buffer (PBS with 100 mM 2-mercaptoethanol, 9 mM MgCl2, 0.125% NP-40) together with 0.15 mM chlorophenol red β-galactoside were added into the wells. After the plates were incubated at 37° C. for 4 hours, the reaction was stopped with 50 μL/well of 15 mM EDTA and 300 mM glycine. The OD at 570 nm was measured and the OD at 630 nm was used as reference. The OD was used as an indicator as activation status of B3Z cells.
Activation of B3Z hybridoma (CD8+T) cells. This assay was done with a protocol described previously (Cho et al., J Drug Target, 2015; p 1-12).

C57BL/6 mice = assay: In vivo CTL response by ELISPOT IFN-γ assay; design: species or system mouse; details: for SIINFEKL-specific CTL response in vivo: immunized C57BL/6 mice, ELISPOT
Description: in vivo CTL response by ELISPOT IFN-γ assay. C57BL/6 mice were immunized subcutaneously with each immunogen (2 nmol […] equivalents per mouse) together with incomplete Freunds Adjuvants (IFA; Sigma, USA) at their left flanks. The immunization was repeated at their right flanks 1 week later. At 10 days after the second immunization, mice were sacrificed, and the spleens were harvested. The spleens of the sacrificed mice were teased into single-cell suspensions and filtered through nylon mesh […]. Red blood cells were lysed by Ammonium-Chloride-Potassium (ACK) lysing buffer. The washed and resuspended single cells were counted using Contess™ Automated Cell Counter (Invitrogen, USA). Splenocytes (8×10^6/mL) were incubated in RPMI-1640 medium supplemented with 10% heat inactivated fetal calf serum, 2 mM glutamine, 100 units/mL penicillin and 100 μg/mL streptomycin (Invitrogen, USA), in a 14 mL polypropylene tissue culture tube for 48 hours, with or without […] peptide (SEQ ID NO: 22) (2.5 μg/mL). The cells were then washed and recounted. 2×10^5 live cells in 100 μL medium were then loaded into wells of 96-well Filtration plates (Millipore, USA) coated with […] of capture anti-mouse IFN-γ mAb (Clone: R4-6A2, Biolegend, USA). Triplicates were set up for each condition. Cells were discarded after 24 hours of culture and the wells were incubated with […] of detectionbiotinylated, anti-mouse IFN-γ mAb overnight (Clone: XMG1.2-Biotin, Biolegend, USA). After the unbound antibodies were washed away from the wells, the bound antibodies were detected using horseradish peroxidase (HRP Avidin, Biolegend, USA) together with 3-amino-9-ethyl-carbazole (AEC) substrate (Sigma, USA). The membranes on the bottom of the wells were peeled off, and color spots on the membrane were scanned. The spots were automatically counted using ImageJ software.
Animal immunization. C57BL/6 mice were immunized by the subcutaneous injection of 2 nmol iTEP NP vaccines and incomplete Freunds Adjuvants (IFA; Sigma, USA) at their left flanks. Immunization was repeated at their right flanks after 1 week. On day 10 after the second immunization, mice were sacrificed, and the spleens were harvested.

[1] = Hydrodynamic diameter by dynamic light scattering (DLS); format: physicochemical; design: Stability: key to the marks not given beside the values
Method: Characterization of the size of iTEPB-pOVA and iTEPB-iTEPA-pOVA fusions. The particle size distribution of the iTEP fusions was determined by dynamic light scattering (DLS) using a Zetasizer Nano-ZS instrument (Malvern Instruments, Malvern, UK) as previously described.^(29) The fusions were prepared at 5 μM and 25 μM in PBS and equilibrated at 37° C. for the measurement. The reported results represented the average particle size by number.
Dynamic light scattering (DLS) measurement. The measurement was carried out as previously described. iTEP, iTEP-MPBH-ABA-Sali conjugate, or PTX NP were measured at 25 μM in PBS at 37° C. using a Malvern Zetasizer Nano system (Malvern, Chester County, PA, USA).
Characterization of hydrodynamic diameters of iTEP-vaccine fusions. Hydrodynamic diameters of iTEP-vaccine fusions were determined by dynamic light scattering (DLS) using a Zetasizer Nano-ZS instrument (Malvern Instruments, Malvern, UK) as previously described (Zhao et al., Mol Pharm, 2014; 11(8):2703-12). The samples were resuspended at concentrations of 5, 25, 50, and 100 μM in PBS and sat at room temperature overnight before measurement. Some samples were kept in 5% C02 at 37° C. for 16 h before DLS measurement. Hydrodynamic diameter results of the sample of 5 μM concentration were reported because they were not affected by the used sample concentrations. Hydrodynamic diameters were presented using the size-by-number distribution approach. Z-average values and sizes-by-intensity data, however, were also reported.

[2] = SDS-PAGE analysis of NPs after GSH treatment; format: physicochemical; details: GSH overnight, non-reducing gels
Method: SDS-PAGE was used to analyze responses of the RED-NP, the MS-NP, and the ST-NP to the treatment of 1 mM GSH. 1 mM but not 10 μM of GSH reduced disulfide bonds inside RED-NP. A large fraction of polymers of the RED-NP fusion (iTEPB70-iTEPA28-(G8C)4-pOVA; (SEQ ID NO: 61)) became monomers due to the treatment of 1 mM GSH, showing as a 50-kDa band on the gel. In contrast, GSH had no effect on polymerization status of the fusions of MS-NP and ST-NP. Non-reducing gels and 25 μg of each fusion were used for the analysis.

[3] = after 16 h incubation at 37° C.
[4] = after 16 h incubation in 5% CO2 at 37° C.
[5] = after the 16 h incubation at 37° C.

Row | Molecule | activation of B3Z cells (B3Z cells) | SIINFEKL-specific CTL response in vivo (C57BL/6 mice) | hydrodynamic diameter by intensity [1, 3] [nm] | hydrodynamic diameter by number distribution [1, 4] [nm] | Z-average [1, 5] [nm] | hydrodynamic diameter by number distribution ([1]; before incubation (0 h), 5 μM) [nm] | Z-average ([1]; before the incubation) [nm] | hydrodynamic diameter by intensity ([1]; before the incubation (0 h)) [nm] | response to GSH treatment (reduction of disulfide bonds, SDS-PAGE) [2] | Stability [1] | B3Z activity, fold more active than DC-treated B3Z cells (B3Z cells) [fold] | B3Z activity, fold more active than OVA/DC-treated B3Z cells (B3Z cells) [fold] | B3Z activity, fold more active than iTEPB-pOVA/DC-treated B3Z cells (B3Z cells) [fold] | SIINFEKL-restricted activated splenocytes (INF-γ ELISPOT) (C57BL/6 mice; subcutaneous immunization twice, 2 nmol SIINFEKL equivalents per mouse with IFA) | mean diameter (DLS) ([1]; 5 μM in PBS, 37° C., by number) [nm] | mean diameter / size (DLS) ([1]; 25 μM in PBS, 37° C., by number) [nm]
1 | RED-NP: reductive-environment dependable NP, disulfide stabilized fusion iTEPB70-iTEPA28-(G8C)4-pOVA (SEQ ID NO: 61) (protein) GGAGVPGGAGVPGGAGVPGGAGVPGGAGVPGGAGVPGGAGVPGGAGVPGGAGVPGGAGVPGGAGVPGGAGVPGGAGVPGGAGVPGGAGVPGGAGVPGGAGVPGGAGVPGGAGVPGGAGVPGGAGVPGGAGVPGGAGVPGGAGVPGGAGVPGGAGVPGGAGVPGGAGVPGGAGVPGGAGVPGGAGVPGGAGVPGGAGVPGGAGVPGGAGVPGGAGVPGGAGVPGGAGVPGGAGVPGGAGVPGGAGVPGGAGVPGGAGVPGGAGVPGGAGVPGGAGVPGGAGVPGGAGVPGGAGVPGGAGVPGGAGVPGGAGVPGGAGVPGGAGVPGGAGVPGGAGVPGGAGVPGGAGVPGGAGVPGGAGVPGGAGVPGGAGVPGGAGVPGGAGVPGGAGVPGGAGVPGGAGVPGGAGVPGGAGVPGGAGVPGGGVLPGVGGVLPGVGGVLPGVGGVLPGVGGVLPGVGGVLPGVGGVLPGVGGVLPGVGGVLPGVGGVLPGVGGVLPGVGGVLPGVGGVLPGVGGVLPGVGGVLPGVGGVLPGVGGVLPGVGGVLPGVGGVLPGVGGVLPGVGGVLPGVGGVLPGVGGVLPGVGGVLPGVGGVLPGVGGVLPGVGGVLPGVGGVLPGVGGCGCGCGCGESIINFEKLTESIINFEKLTGG | failed to activate B3Z cells as effectively as the MS-NP but, again, fared better than the ST-NP | outperformed the MS-NP and induced stronger CTL responses | 70.99±17.52 | 53.05±12.38 | 76.89 | 61.94±12.71 | 87.59 | 75.55±15.32 | can be reduced by 1 mM but not by 10 μM of GSH |  |  |  |  |  |  | 
2 | ST-NP: stable NP of the fusion iTEPB70-iTEPA56-pOVA (SEQ ID NO: 60) (protein) GGAGVPGGAGVPGGAGVPGGAGVPGGAGVPGGAGVPGGAGVPGGAGVPGGAGVPGGAGVPGGAGVPGGAGVPGGAGVPGGAGVPGGAGVPGGAGVPGGAGVPGGAGVPGGAGVPGGAGVPGGAGVPGGAGVPGGAGVPGGAGVPGGAGVPGGAGVPGGAGVPGGAGVPGGAGVPGGAGVPGGAGVPGGAGVPGGAGVPGGAGVPGGAGVPGGAGVPGGAGVPGGAGVPGGAGVPGGAGVPGGAGVPGGAGVPGGAGVPGGAGVPGGAGVPGGAGVPGGAGVPGGAGVPGGAGVPGGAGVPGGAGVPGGAGVPGGAGVPGGAGVPGGAGVPGGAGVPGGAGVPGGAGVPGGAGVPGGAGVPGGAGVPGGAGVPGGAGVPGGAGVPGGAGVPGGAGVPGGAGVPGGAGVPGGAGVPGGAGVPGGGVLPGVGGVLPGVGGVLPGVGGVLPGVGGVLPGVGGVLPGVGGVLPGVGGVLPGVGGVLPGVGGVLPGVGGVLPGVGGVLPGVGGVLPGVGGVLPGVGGVLPGVGGVLPGVGGVLPGVGGVLPGVGGVLPGVGGVLPGVGGVLPGVGGVLPGVGGVLPGVGGVLPGVGGVLPGVGGVLPGVGGVLPGVGGVLPGVGGGGGGGGGCGGGGGGGGCGGGGGGGGCGGGGGGGGCGESIINFEKLTESIINFEKLTGG | much less robust in activating B3Z cells than the MS-NP | significantly weaker than the one elicited by the MS-NP | 74.45±18.99 | 55.36±12.88 | 70.42 | 56.01±13.54 | 74.59 | 78.56±21.60 | did not respond to the treatment | ++ |  |  |  |  |  | 
3 | G(GAGVPG)70G(GVLPGVG)28G(ESIINFEKLT)2GG (protein) GGAGVPGGAGVPGGAGVPGGAGVPGGAGVPGGAGVPGGAGVPGGAGVPGGAGVPGGAGVPGGAGVPGGAGVPGGAGVPGGAGVPGGAGVPGGAGVPGGAGVPGGAGVPGGAGVPGGAGVPGGAGVPGGAGVPGGAGVPGGAGVPGGAGVPGGAGVPGGAGVPGGAGVPGGAGVPGGAGVPGGAGVPGGAGVPGGAGVPGGAGVPGGAGVPGGAGVPGGAGVPGGAGVPGGAGVPGGAGVPGGAGVPGGAGVPGGAGVPGGAGVPGGAGVPGGAGVPGGAGVPGGAGVPGGAGVPGGAGVPGGAGVPGGAGVPGGAGVPGGAGVPGGAGVPGGAGVPGGAGVPGGAGVPGGAGVPGGAGVPGGAGVPGGAGVPGGAGVPGGAGVPGGAGVPGGAGVPGGAGVPGGAGVPGGAGVPGGAGVPGGESIINFEKLTESIINFEKLTGG |  |  |  | 8.39±1.20 | 422.90 | 71.94±20.81 | 101.00 | 111.90±35.02 | did not respond to the treatment |  | 4.38 | 3.81 | 2.9 | 105 spots per million seeded splenocytes | 81.2±14.2 | 71.9±20.8
